Measurements taken from patent US20240116985A1, “STAPLED PEPTIDES AND METHODS THEREOF” (priority 2020, published 2024).
Starred links: 1 amine or outer side, 2 acyl side, 3 side chain; linkers in the order of their positions; H or OH if unused. Positions of bridges follow the written chain, without caps; N, C: chain ends. Non-standard residues stand in square brackets, D forms with d. Primed or numbered codes have the meaning given here. PyrS2″ = (S)-3-amino-1-((pent-4-en-1-yloxy)carbonyl)pyrrolidine-3-carboxylic acid (stapling residue), C=CCCCOC(=O)N1CC[C@@](N[*:1])(C(=O)[*:2])C1; B5(4) = 2,2-bis(4-pentenyl)glycine = 2-amino-2-(pent-4-en-1-yl)hept-6-enoic acid (stitching residue), C=CCCCC(CCCC=C)(N[*:1])C(=O)[*:2]; B5(5) = 2,2-bis(4-pentenyl)glycine, 2-amino-2-(pent-4-en-1-yl)hept-6-enoic acid (stitching residue), C=CCCCC(CCCC=C)(N[*:1])C(=O)[*:2]; 5F3Me3COOHF = (S)-3-(2-amino-2-carboxyethyl)-5-(trifluoromethyl)benzoic acid, O=C([C@H](Cc1cc(C(=O)[*:3])cc(C(F)(F)F)c1)N[*:1])[*:2]; TfeGA = (S)-2-amino-3-((carboxymethyl)(2,2,2-trifluoroethyl)amino)propanoic acid, O=C([C@H](CN(CC(=O)[*:3])CC(F)(F)F)N[*:1])[*:2]; PyrS2 = (S)-3-amino-1-((pent-4-en-1-yloxy)carbonyl)pyrrolidine-3-carboxylic acid, C=CCCCOC(=O)N1CC[C@@](N[*:1])(C(=O)[*:2])C1; B5(12) = 2-amino-2-(pent-4-en-1-yl)hept-6-enoic acid (two olefin side chains), C=CCCCC(CCCC=C)(N[*:1])C(=O)[*:2]; 4F3COOHF = (S)-5-(2-amino-2-carboxyethyl)-2-fluorobenzoic acid, O=C([C@H](Cc1ccc(F)c(C(=O)[*:3])c1)N[*:1])[*:2]; PyrS2(5) = (S)-3-amino-1-((alkenyloxy)carbonyl)pyrrolidine-3-carboxylic acid, carbamate stapling residue; (CyPr)‑3SF = (S)-2-amino-3-(3-cyclopropylphenyl)propanoic acid, O=C([C@H](Cc1cccc(C2CC2)c1)N[*:1])[*:2]; B5(3) = 2,2-bis(4-pentenyl)glycine (stitching residue), C=CCCCC(CCCC=C)(N[*:1])C(=O)[*:2]; B5 = 2-amino-2-(pent-4-en-1-yl)hept-6-enoic acid, C=CCCCC(CCCC=C)(N[*:1])C(=O)[*:2]; Phe(3-Ph) = N[C@@H](Cc1cccc(-c2ccccc2)c1)C(=O)O; Phe(3-COOH) = N[C@@H](Cc1cccc(C(=O)O)c1)C(=O)O; 2F3MeF = Cc1cccc(C[C@H](N[*:1])C(=O)[*:2])c1F; Phe(4-Cl) = N[C@@H](Cc1ccc(Cl)cc1)C(=O)O; Phe(2-Cl) = N[C@@H](Cc1ccccc1Cl)C(=O)O; Bta = N[C@@H](Cc1csc2ccccc12)C(=O)O; αAllylPro = C=CC[C@@]1(C(=O)O)CCCN1; tBuAla = CC(C)(C)C[C@H](N)C(=O)O; 3Thi = N[C@@H](Cc1ccsc1)C(=O)O; 34ClF = not defined here; Nle = CCCC[C@H](N)C(=O)O; Aib = CC(C)(N)C(=O)O

B1: I-2218 (peptide)
peptide: Ac-[αAllylPro]D[tBuAla][B5(3)]D[Phe(3-COOH)]AAFL[PyrS2″][2F3MeF][34ClF]S-NH2
modifications: staple 1-4, 4-11; reading uncertain
B2: I-2211 (peptide)
peptide: Ac-[αAllylPro]D[tBuAla][B5(5)]D[5F3Me3COOHF]QAFL[PyrS2][3Thi][Bta]A-NH2
modifications: staple 1-4, 4-11
B3: I-2220 (peptide)
peptide: Ac-[αAllylPro]D[tBuAla][B5(3)]D[Phe(3-COOH)]AAFL[PyrS2″][3Thi][Phe(4-Cl)]Q-NH2
modifications: staple 1-4, 4-11
B4: I-2206 (peptide)
peptide: Ac-[αAllylPro]D[tBuAla][B5(5)]D[4F3COOHF]QAFL[PyrS2][3Thi][Bta]A-NH2
modifications: staple 1-4, 4-11
B5: I-2216 (peptide)
peptide: Ac-[αAllylPro]D[tBuAla][B5(3)]D[Phe(3-COOH)]AAFL[PyrS2″][3Thi][34ClF]Q-NH2
modifications: staple 1-4, 4-11; reading uncertain
B6: I-2219 (peptide)
peptide: Ac-[αAllylPro]D[tBuAla][B5(3)]D[Phe(3-COOH)]QAFL[PyrS2″][2F3MeF][34ClF]A-NH2
modifications: staple 1-4, 4-11; reading uncertain
B7: I-862 (peptide)
peptide: Ac-[αAllylPro]D[tBuAla][B5(12)]DLAAFN[PyrS2][3Thi][Bta]-NH2
modifications: staple 1-4, 4-11
B8: I-2214 (peptide)
peptide: Ac-[αAllylPro]D[tBuAla][B5(3)]D[Phe(3-COOH)]AAFL[PyrS2″][Phe(3-Ph)]FQ-NH2
modifications: staple 1-4, 4-11
B9: I-2215 (peptide)
peptide: Ac-[αAllylPro]D[tBuAla][B5(3)]D[Phe(3-COOH)]AAFL[PyrS2″][(CyPr)‑3SF]FQ-NH2
modifications: staple 1-4, 4-11
B10: I-1689 (peptide)
peptide: Ac-[αAllylPro]D[tBuAla][B5]D[Phe(3-COOH)][Aib]GFL[PyrS2][Phe(2-Cl)][Bta]Q-NH2
modifications: staple 1-4, 4-11
B11: I-1696 (peptide)
peptide: Ac-[αAllylPro]D[tBuAla][B5]D[TfeGA][Aib]GFT[PyrS2][Phe(2-Cl)][Bta]Q-NH2
modifications: staple 1-4, 4-11
B12: I-1694 (peptide)
peptide: Ac-[αAllylPro]D[tBuAla][B5]D[TfeGA]AGFT[PyrS2][Phe(2-Cl)][Bta]Q-NH2
modifications: staple 1-4, 4-11
B13: I-1688 (peptide)
peptide: Ac-[αAllylPro]D[tBuAla][B5]D[Phe(3-COOH)][Nle]GFL[PyrS2][Phe(2-Cl)][Bta]Q-NH2
modifications: staple 1-4, 4-11
B14: I-1687 (peptide)
peptide: Ac-[αAllylPro]D[tBuAla][B5(4)]D[Phe(3-COOH)]AGFL[PyrS2(5)][Phe(2-Cl)][Bta]Q-NH2
modifications: staple 1-4, 4-11
B15: I-1695 (peptide)
peptide: Ac-[αAllylPro]D[tBuAla][B5]D[TfeGA][Nle]GFT[PyrS2][Phe(2-Cl)][Bta]Q-NH2
modifications: staple 1-4, 4-11
B16: I-1692 (peptide)
peptide: Ac-[αAllylPro]D[tBuAla][B5]D[TfeGA][Nle]AFT[PyrS2][Phe(2-Cl)][Bta]Q-NH2
modifications: staple 1-4, 4-11

molecular target: Bcat-Halo (UniProt P35222); test: NanoBRET Abs IC50, Bcat-Halo/TCF4-Luc in HEK293 cells
Sequence (P35222 whole entry): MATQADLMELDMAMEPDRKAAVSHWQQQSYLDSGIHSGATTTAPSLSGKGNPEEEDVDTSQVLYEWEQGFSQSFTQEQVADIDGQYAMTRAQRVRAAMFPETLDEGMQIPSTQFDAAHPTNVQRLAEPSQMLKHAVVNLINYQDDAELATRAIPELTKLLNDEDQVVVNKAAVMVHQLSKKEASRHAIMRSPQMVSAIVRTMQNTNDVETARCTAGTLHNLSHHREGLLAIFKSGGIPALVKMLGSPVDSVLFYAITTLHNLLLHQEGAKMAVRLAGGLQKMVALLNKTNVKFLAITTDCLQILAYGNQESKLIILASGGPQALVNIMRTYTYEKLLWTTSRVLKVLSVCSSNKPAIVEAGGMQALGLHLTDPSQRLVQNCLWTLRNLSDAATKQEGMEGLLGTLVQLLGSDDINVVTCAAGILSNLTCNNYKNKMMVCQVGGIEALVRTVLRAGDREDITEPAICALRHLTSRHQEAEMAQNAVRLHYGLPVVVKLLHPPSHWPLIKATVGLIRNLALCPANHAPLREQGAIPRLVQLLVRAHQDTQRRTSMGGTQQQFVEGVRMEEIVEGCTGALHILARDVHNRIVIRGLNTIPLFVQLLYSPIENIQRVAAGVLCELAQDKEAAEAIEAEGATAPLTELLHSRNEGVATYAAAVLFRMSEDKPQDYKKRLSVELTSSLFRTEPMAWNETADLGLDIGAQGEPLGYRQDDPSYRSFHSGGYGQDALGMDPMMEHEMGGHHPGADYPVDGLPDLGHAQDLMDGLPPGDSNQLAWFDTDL

IC50 [nM] | Binder
5100 | B1
12900 | B2
16300 | B3
7100 | B4
3400 | B5
2700 | B6

molecular target: full-length beta-Catenin (Uniprot ID P35222) (Homo sapiens (Human)) (UniProt P35222); test: FP competition vs 5FAM-TCF4(10-53), full-length beta-catenin
Target sequence in this assay (P35222 2-781 limits assumed): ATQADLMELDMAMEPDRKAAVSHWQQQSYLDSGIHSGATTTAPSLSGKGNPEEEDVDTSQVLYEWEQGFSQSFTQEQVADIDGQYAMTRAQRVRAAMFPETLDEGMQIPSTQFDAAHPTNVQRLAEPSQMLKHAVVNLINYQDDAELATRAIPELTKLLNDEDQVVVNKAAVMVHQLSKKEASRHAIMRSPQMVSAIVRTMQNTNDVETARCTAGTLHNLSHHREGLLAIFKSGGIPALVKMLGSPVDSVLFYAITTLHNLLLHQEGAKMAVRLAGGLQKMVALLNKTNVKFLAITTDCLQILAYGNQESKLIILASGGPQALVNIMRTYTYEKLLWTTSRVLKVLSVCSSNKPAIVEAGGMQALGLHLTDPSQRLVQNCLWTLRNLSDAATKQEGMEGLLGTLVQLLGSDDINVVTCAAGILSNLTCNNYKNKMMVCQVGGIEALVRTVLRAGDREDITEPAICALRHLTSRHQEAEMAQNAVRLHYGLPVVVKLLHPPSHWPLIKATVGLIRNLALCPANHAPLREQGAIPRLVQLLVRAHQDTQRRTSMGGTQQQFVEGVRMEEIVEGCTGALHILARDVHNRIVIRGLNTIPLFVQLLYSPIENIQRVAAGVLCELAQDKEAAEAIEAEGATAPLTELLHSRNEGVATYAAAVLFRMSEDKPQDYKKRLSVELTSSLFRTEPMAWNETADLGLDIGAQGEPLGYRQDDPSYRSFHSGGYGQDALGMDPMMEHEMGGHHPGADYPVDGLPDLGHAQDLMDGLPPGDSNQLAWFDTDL

IC50 [nM] | Binder
123 | B7

molecular target: full-length beta-Catenin (Uniprot ID P35222) (Homo sapiens (Human)) (UniProt P35222); test: fluorescence polarization competition against 5FAM-TCF4 10-53
Target sequence in this assay (P35222 whole entry, the tested form may be a part, one chain of several): as the sequence (P35222 whole entry) above

IC50 [nM] | Binder
1860 | B8
34 | B1
23 | B2
12 | B3
7 | B4
7 | B5
1540 | B9
21 | B6

molecular target: full-length beta-Catenin (Uniprot ID P35222) (Homo sapiens (Human)) (UniProt P35222); test: fluorescence polarization competition; competitor 5FAM-TCF4 10-53
Target sequence in this assay (P35222 whole entry, the tested form may be a part, one chain of several): as the sequence (P35222 whole entry) above

IC50 [nM] | Binder
25.5 | B10
32 | B11
57 | B12
59 | B13
42 | B14
93 | B15
17 | B16

molecular target: Bcat-Halo (beta-catenin HaloTag construct expressed in HEK293 cells) (UniProt P35222); test: NanoBRET target engagement in HEK293 cells, absolute IC50; competitor TCF4-Luc
Sequence (P35222 whole entry): as above

IC50 [nM] | Binder
12500 | B10
35500 | B11
43600 | B12
21500 | B13
18600 | B14
> 20000 | B15
10400 | B16

molecular target: full-length beta-Catenin (Uniprot ID P35222) (Homo sapiens (Human)) (UniProt P35222); test: fluorescence polarization competition; 10 nM full-length beta-catenin with 10 nM 5FAM-TCF4 (residues 10-53) probe as competitor
Target sequence in this assay (P35222 2-781 limits assumed): as the sequence (P35222 2-781 limits assumed) above

EC50 [nM] | Binder
123 | B7
